From the nanobody polyreactivity screen of Harvey et al. (2022)

test: yeast display, Sf9 membrane polyspecificity reagent, FACS + sequencing; frameworks hold sequencing errors
How it was run: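 In a synthetic yeast display library (Saccharomyces cerevisiae BJ5465), nanobody expression was induced with galactose for 36–48 hours. FACS gates were set low and high (top ~1%) using anti-HA fluorescence for expression and streptavidin fluorescence for binding of the Sf9 membrane reagent. Each polyreactivity label is drawn from the gate of origin.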

Sequence	polyreactivity (PSR sort gate)
QLQLVESGGGLVQAGGSLRLSSAASGITFRGYTMGWYRPAPGKERELVARIRSSDGSTYYADSVKGRFTISRDNAKNTVYLQMNSLKPEDTAVYYCNDDRRGRALKYYSWGQGTQVTVSS	low polyreactivity
QLQLVESGGGLVQAGGSLSLSCAASGSTFDYYDMGWYRQAPGKERELFSYISWSGGSTRYADSVKGRYTISRDNAKNTVYLQMNSLKPEESAVYYCNKSNPDYDRLAIHAFDYWGQGTQLTVSS	low polyreactivity
QLQLVESGGGLVQAGVSLRLSCASSGRIFALYAMGLYSQAPGKERELVAAITWRGGRTRYADSVKGRFTFSRDNAKYTVYLQMNSLKPEDTAVYYCAKEYVKYQWDYGYFGQGTQVTVSS	high polyreactivity
QLQLVESGGRLVQAGGSLRLSCAATGFTFGGYAMGWYRQAPGKESELVARIRRSGGSTYYADSVKGRFTISRDNAKNTVYLQMTSLKPEDTAVYYCAAGYSRGQYRYNYWGQGTQVTVSS	high polyreactivity
QLQLVESGGVIVQAGGSLRLSCAASGITIYYNAMGGYRHAPGQVRELVAAITRSGGSPNYADSVKGRFTISRDNAKNNVYLQMKSLKPEDTAVYSCAKGHLYAGHRHYAYGYWGQGTQVTVSS	low polyreactivity
QLQLVESGRGLVQAGGSLRLRCAASVSTFGANAMGWYRQAPGKESELVATISSGGRTYYADSVKGRFTISRDNAKNTVYLQMNSLKPEDTAVYYCNAGADYTYVYISVYVLYDEWGQGTQVTVSS	low polyreactivity
QLQLVESGRGLVQAGGSLRLSCAASGFTFRTYAKGWYRQAPGKERELVAAITVSGGTYYADSVKGRFTISRDNAKNTVYLQMNSLKPEDTAVYYCTAKRFRTGFDYWGQGTQVTVSS	low polyreactivity
QLQLVESGRGLVQAGGSLRLSCAASGRTFYFYGMGWYRQAPGKERELVASITRGTSTTYADSVKGRFTISRDNAKNTVYFQMNSLKPEDTAVYYCAARAWNYLTSYYIGGYEYWGQGTQVTVSS	low polyreactivity
QLQLVESRGGLVQAGGSLRLSCAASGRIFFSNPMGWYIQAPGKDRELVASMTGGDDTNYADSVKGRFTISRDNAKNTVYLQMNSLKPEDTAVYYCAARAIPSYRWVYRFAPQYDYWGQGTQVTVSS	low polyreactivity
QLQREESGGGLVQAGGSLRLSCAASGRTFTRYAMGWYRQAPVKERELVAAISGGGGSTYYADSVKGRFTISRDNAKITVYLQINSLKPEDTAVYYCNAAARVYSFDYWGQGTQVTVSS	low polyreactivity
QLQREESGGGLVQAGGSLRLSCAASGSTFEKNAMGWYRQAPAKERELVAALSNGVSTYDADSVKGRFPISRDNAKNSVYLLMNSLKPEDTAVYYCAADLFFGAETVYYAKFDYWGQGTQVTVSS	low polyreactivity
QQQLVESDVGLDQAGRSHRLSCAASGFIFAPNAMGWYRQAPGKERELVAAITYRGGGTYYADSVKGRFTISRDNAKNTVYLQMNSLKPEDTAVYYCAAGYDSYYRGSYNYWGQGTQVTVSS	high polyreactivity
QVCLQESGGGLVQACGSLRLSCAASGTISRDIFMGWYRQAPGKEREFVATIAQGGITNYADSVKGRFTISRDNAKNTVYLQMNSVKPGDTAVYYCAARDGNCYWFYYWGQGTQVTVSS	high polyreactivity
QVEHVESGGGLVQAGGSLRLSCAASGITFAAYAMGWYRQARGTERELVAAISTSGDSTYYADSVKGRFTISRDYAKITVYLQMNSLKPADTAVYYCNDRRYGYGVGRGLYIYDYCGQGTQVTVSS	high polyreactivity
QVELVESAGGLVQAGGSLRLICAASGLTFDAYAMGWYRQAPGKERELVAAISSGGNTYYADSVKWRFTISRDNAKNTVYLQMNSLKPEDTAVYYCAATFIQVVVNVQLYDYDYWGQGTQVTVSS	low polyreactivity
QVELVESGGGLVQAGGSLRLSCAASGLTFVSYAMGWYRQAPGKERELVAAISRSGGSTYYADSVKGRFTISLDNAKNTVYLQMNSLKPEDTAVYYCNAYSYVEFWAVYRYDYWGQGTQVTVSS	high polyreactivity
QVHHVESGGGLVQAGGSLRLSCAASGFTFDLYATVLSRQAPRKERELVAAITWRGGSTYYADSVKGRFAISRDNAKNTVYLQMNSLQPEDTAVYYCAADYVIVDDAWLITVEMDSWGQGTQVTVSS	low polyreactivity
QVHHVESGGGLVQAGGSLRLSCADSGSIFTYYAMGWYRQAPGKERDLVAAINSGGRTNYADSVKGRFTISRDNAKNTVYLQMNSLKPVDTAVYYCANYGVLQYGYWGQGTQVTVSS	low polyreactivity
QVHHVESVGGLVQAGGILRLSSAASGRTFDRYAMGWYRQEPGKERELVAAISSGGSTYYADSVKGRFTISRDNAKNTVYLQMNSLKPEDTADYYCNAGKTFDFRDGVGYDHWGQGTQVTVSS	low polyreactivity
QVHIVESGGGLDQAGGSLRLSCAASGSIFYRNAMGWYRQAPGKEREMVAAISSDGSTNYADSVKGRFTISRDNAKNTVYLQMNSLKQEDTAVYFCAAQWTQILDYWGQGTQVNVSS	low polyreactivity
QVHLEESGGGIVQAGGSLRLSCAASGSNFGYNAMGWYRQAPGKEREFVARISSRDDRTSYADSVKGRFTISRDNAKNTVYLQMNSLKPEDTAVYYFAAVRFFLTRAWRPLNYWGQGTIVTVSS	high polyreactivity
QVHLEESGGGLVQAGGSLRLRSAATGRIFKRYAMGWYIQAPGKERDLVAAINWSTGGTYYADSVKGRFTISRDNAKNSVYLHMNSLKPVDTAVYSCAADGDAWFEYLDVEYYYWGQGTQVTVSS	low polyreactivity

Sequence	polyreactivity (PSR sort gate)
QVHLEESGGRLVQAGGSLRLSCSDSGRIIPRNVMGLYRQAPGKERELVAAISSRGTRTYYADSVKGRFTISRDNAKNTVFLQMNSLKPEDTAVYYCAADGPYDGYDFWGQGTQVTVSS	high polyreactivity
QVHLGESGGGLVQAGGSLRLSCAASGSIFGYYAMGWYRQAPGKERELVAAITFRDGSTYYADSVKGRFTISRDNAKNTVYLQMNSLKPEDTAVYYCAARVTYSRGYRGGSRTKYDYWGQGTQVTVSS	low polyreactivity
QVHLLESGGGLDHAGGSLRLSCAASGRIFRYYFMGWYRQAPGKERELVAAISRGGRTYYADSVKGRFTISRDNAKNTVYLQMNSLKPEDTAVYYCDAVITQTDTGYGPSFRVYYWGQGTKVTVSS	high polyreactivity
QVHLQDSGGGLVKAGGSLRMSCAASGYIFGSGSMGWFRQAPGKERELVATINNGSSTYYADSVKGRFTISRDNAKNNVYLQMNSLKAEATAVYYCAVYLYRLTFFYYWGQGNQVTVSS	high polyreactivity
QVHLQESGGGLVQAGGSLRLSCEASGSISRYYDMVWYRQAPGKELEFVAGISGGAITYYADSVKGRFTISRDNAKNTVYLQMNSLKPEDTAVYYCAADTGVYQYHSYWGQGTQVTVSS	low polyreactivity
QVHLVASGGGLVQAGGSLRLSCAASGRSFYEYAMGRYRQEPGKERELVAGITSGGSTNYADSVKGRFTISRDNAKNTVYLQMTSLKPEDTAVYYCADSYWGYEYDYWGQGTQVTVSS	low polyreactivity
QVHLVDSGGGLVQAGASLRLSCSASGSIFYSYAMGWYRPAPGKEWELVAAIRRGGSTNYADSVKGRFTISRDNAKNTVYLQMNSLKPEDTAVYYCAAGRFTYAAQRYEYWGQGTQVTVSS	high polyreactivity
QVHLVDSGGGLVQAGGSLRLSCAASGFTFWRYTMGWYRQAPGKERELVAAISGGTTTYYADSVKGRFTISRDNAKNTVYLQMNSLKPEDTAVYYCAAYSQRARTYDYWGQGTQVTVSS	high polyreactivity
QVHLVDSGGGLVQAGGSLRLSCATSGRIFGAYAMVWYRQAPGKESELVAAITSRGGNTYYADSVKGRFTISRDNAKNTVYLQMNSLKPEDTAVYYCAAGHDKRRQYYVGQSAFDYWGQGTQLTVSS	low polyreactivity
QVHLVDSGGGLVQAGGSLRLSCPASGFIFGLYVMGCYRQSPGKERELVAAITTSVGSTYYADSVKGRFTISRDNAKNTVYLQMNSLKPEDTSVYYCAKTSGTIDYDYWGQGTQVTVSS	low polyreactivity
QVHLVDSGGGLVQAGGSLRLSCPASGLTFPSNSMGCYRQAPGKERELVAAISKRGGRTYYADSVKGRFTISRDNAKNTVYLQMNSLKPEDTAVYYCATLYAYPGTVQYAGYNYWGQGTQVTVSS	high polyreactivity
QVHLVDSGGGLVQAGGSLSLSCAASGIIFLTNAMGWYRQAPGTERELVAAITAIGGSTYYADSVKGSFTISRDTSKYTVYLQMNSLKPEDTAGYYCAADFSYVYYLYDYWGQGTQVTVSS	low polyreactivity
QVHLVDSGGGLVQAGGSLSLSCAPSGTTFHPYAMGCYRHAPGKEREFVATISGSAGSTYYADSVKGRFKISRDNAKNTVYLQMNSLKPEDTAVYYCNADSGWFGYDYWGQGTQVTVSS	low polyreactivity
QVHLVEAGVGLVQAGGSLRVSCAASGFTFCRYAMVWYRQAPGKERELVAAIRYSGSSTYYADSVKGRFTISRDNAKNTVYLQMNSLKPEDTAVYYCAKRYYGNDYWGQGTQVTVSS	high polyreactivity
QVHLVESAGGLVQAGGSLRLSCDASGRTFYPNAMGWYRQKHGQERELVAGIRSSGESTYYEDSVKGRFTISRDNAKTTVYLQMNSLKQEDTAVYYGIRDLTPSYDFWGQGSQVTVSS	low polyreactivity
QVHLVESAGGLVQAGGSLRLTCAASGSTFLFYAMGMYRQAPGKERELVAAISRSGTSTYYADSVKGRFTISRDNAKNTVYLQMNSLKPEDTAVYYCAADDYGGYYYWGQGTQVTVSS	high polyreactivity
QVHLVESGAGLVQAGGSLRISCAASGIIFRLYGLGWYRQAPGKERELVAGINTGGSTSADSVKGRFTISRDNAKNTVYLQMNSLKPEDTAVYYCARDPGYYHPWYRYDYWGQGTQVTVSS	low polyreactivity
QVHLVESGAGLVQAGGSLRLSCAASGGIFWVYAMGWYRQAPGKERELGAAISNSDTSTSYADSVKGRFTISRDNAKNTVYLQMTSLKPEDTAVYYCNADSPSLSGDYWGQGTQVTVSS	low polyreactivity
QVHLVESGGALVQAGGRLRLSCAASGSIFGRNAMGWYRQAPGKERELVAVISKRSGNTYYADSVKGRFTISRDNAKNTVYLQMNSLKPEHTAVYYCNAVDQKLLRYDYWGQGTEVTVSS	high polyreactivity
QVHLVESGGALVQAGGSLRLSCAASGNTFNANAMGWYRQAPGKERELVAVISANGGRTYYADSVKGRFTISRDNAKNTVYLQMNSLIPEDTAVYYCAADSSGEYPGGYWGQGTQVTVSS	low polyreactivity
QVHLVESGGCLVQAGGSLRLSCAASGFTITYNAMGWYRQAPGKEREFVAAITNNGSTYYADSVKGRFTISRDNAMNTVYFQMNSLKPEDTAVYYCAVDPGYYDEYNYWGQGTHVTVSS	low polyreactivity
